Article PMC6602525 (Cell, 2019)

Biological target: PfRH5FL (full-length PfRH5 protein comprising amino acids E26–Q526) (P. falciparum (3D7 clone), UniProt Q8IFM5 26-526, T40A | T216A | T286A | T299A)
Assay: SPR
Conditions: both partners purified

B1: PfP113Nt (domain or fragment)
chain: YVHNDVIKFGEENSLKCSQGNLYVLHCEVQCLNGNNEIIHKRCNDDIEKKCNGNNKCIYFFEYELRKKTQSFRNKNSIEISECVESEQNEVKTSTTCLLSNSFILDEAFIQYFFFIKNKNEEPVICKDGNINIKSALLHSPFCEIKLKDISEYIRKKCDNNKECLIDPLDVQKNLLNEEDPCYINNSYVSVNVVCNK
binding result: binds
